According to the supplement of paper PMC12764529:

assay: folding stability dG unfold (combined trypsin and chymotrypsin); higher = more stable
Protocol: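 Folding stability of de novo designed mini-proteins (<80 aa, no Cys; designed by TrROS, TrMRF, ProteinMPNN and the joint model) was measured by cDNA display proteolysis with trypsin and chymotrypsin. Each protease was used at 11 concentrations in a threefold dilution series plus a no-protease condition. K50 was inferred by Bayesian fitting of sequencing counts, and dG unfold was derived against a sequence-predicted unfolded-state K50 (Tsuboyama et al. method). Sequences shown include variable-length N-terminal GS-type padding (SAGGSAGG...) inside a display construct carrying a PA tag. Rows were kept only if the AF2 dimer inter-PAE was >15, to exclude likely homo-oligomers.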

Sequence | folding stability dG unfold [kcal/mol]
SASLPEKLAKELLPEAKEIKILEVKTEPDPNSDRPVTTVKMEAELEGGKKKLTVTLSPGPLKIKVTPEPSAG [r14_397_JUSTAS] | < -1
SAGGSAGGSANFRILVDPPTNKIWIFDPPGYVYKIKVDPKEGKMKHEPVPIPPDDLPPNAFKSAGGSAGGSA [r18_59_TrROS] | < -1
SAGGSAGGSASMKIAKEVRTDPNSDVTYRVEVYRLPGPNVLLVETTYPEGVELSLVEVDPPSAGGSAGGSAG [r3_123_JUSTAS] | < -1
SAGGSAGGSAEELAKKLAEELGVKVEVEEKDGKLVVKIEKKKAKPKPKKVEKKKYYSEEELKSAGGSAGGSA [r18_27_TrROS_Hall] | < -1
MKIVIDKDGNIRIEIIDKDGKKITLTLPVKTLEEALQKIKDLIRELFPDAKDLKVKVVEVKDGYVVIEVEPS [r1_389_TrROS_Hall] | > 6
SAGGSAGGPKPAKIKEVPFKMRHPGNGQPHKMEIKEVRPDGMIEIDFPNGEEHRIPGMKIDEIESAGGSAGG [r6_435_TrROS] | < -1
SAGGSAGGSAGPEVRPAPTPDGREVWVLRRTRRHPGPGDGVVVEEEVVPADDPEALRRRASAGGSAGGSAGG [r11_967_TrMRF] | < -1
SAGGSAGGPVIPTPSDLVVEVGKLSEELSFLSKSVRPNGPEELVFDSSVLVEEGVKVLKPSDRRSAGGSAGG [r6_586_JUSTAS] | < -1
SAGGSAPPKIDIDVEPNPEEGYYRVTVEFPDGWPLKIPYPYPDPEDNKRNAKKHVKWILKKHEELLSAGGSA [r15_477_TrROS] | < -1
SAGGSAGGSMVVTTTEFDLNGVKATLSIDDTGSATAKIPDPSYKEDVLKLIPSSFSLTSFDAESAGGSAGGS [r12_9_JUSTAS] | < -1
SAGGSAGGSAGKKIEIDEANPEENMYRISFPDKRTHQFDSAEDLKEQIPPGIPVEIEPLKSAGGSAGGSAGG [r17_295_TrROS] | < -1
SAGMTINNTGSVEELKKLPDVVEIEKEGNKYTIKMPGETVEVELNPPKPVPKGPPYTSESEKKKKSEKSSAG [r5_2_JUSTAS] | < -1
SAGGGSSMSPISDQQTSSSLPDGTTVTRTTTTYPTSVLVTTTTTDPATGAPTTTTTTYTTPGSSVAGSAGGS [r16_419_JUSTAS] | < -1
SAGGSAGGSAKKIEIDPERDPNGMHLVEVTRRDPGNGKKKDIPFNVNPGKMTPEEIKDLAKSAGGSAGGSAG [r3_127_TrROS] | < -1
SAGGSMITKETFPGSEVLTYPEKGIRVELDDKNVTVYDIKPLPGKGEPVVLSSKTISKEELEKLIKSSAGGS [r8_174_JUSTAS] | < -1
SAGGSAGGSKMTVRIDEVHTHKHDGRRYLSVPLRFPDNGKPIDFHIPPDDLKNLKPGEEITIESAGGSAGGS [r12_382_TrROS] | < -1
SAGGIRMPPGQTQTFKLPGRKIEVHMGPNGPIYIEIENPGNGEPVEVPMRGDMTIDEMADAILDKLGSAGGS [r8_158_TrROS] | < -1
SAGGMKTIEYPVVMDEEEAVKLVEELVAKAKAEGEETVVKVEVYRIGKGPDGVPTREKLGTYEVEVPGSAGG [r13_974_JUSTAS] | < -1
SAGGTIKEIFEKNGAEIETNPGQGVVTVEMRKPKRDDNGMPKPKPKGKHEIKVPGGDPEQALDNLLKHSAGG [r13_924_TrROS] | < -1

Sequence | folding stability dG unfold [kcal/mol]
SAGGNKITIEVNMNPEEGYYMVPIEIPRRDPNGEPEKRKIEVMVPMSPNAQEKAKNLANKLGIDKIYSAGGS [r8_381_TrROS] | < -1
SAGGSMTPAELANEIAEKLHEELPPDKSVTITMRFGSGPVTLTIPPDARVDVPEDRPLEVDEISIGSAGGSA [r2_391_JUSTAS] | < -1
SAGGSAGGSAGGSRKINIFFDDPEQARKFAREIRNEGLPPEDMPIKVEITPIPPEDMGASAGGSAGGSAGGS [r4_281_TrROS] | < -1
SAGGSAGGSNPDNNFPPRPKEPIKFPGEGMKIWVYKNHGHIFMEPPPGERQMGTIDPEDGKIVSAGGSAGGS [r12_420_TrROS] | < -1
SAGGSAGGSAGGSPFTIRNPNGMQVRIDDFDPEEGKVKIEIEMPNKPVEYPIPLDDIIFSAGGSAGGSAGGS [r4_110_TrROS] | < -1
SAGGSAGGSAGGSGELELTVVSPLPDGTVKVTRYRVELPEDGLEITEVETEEVPPEEAGSAGGSAGGSAGGS [r4_389_TrMRF] | < -1
SAGGSAGGSAGLNVGDVVVEVEAGTEYEFLIPNPAKLVKVKVVPDPTTNELKVEEAKVYDLKSAGGSAGGSA [r18_222_TrMRF] | < -1
SAGGSAGGSAGGPPPEKAAAYLVKYRNPDGGPLGTRPVELPPDRPEVEHDPSFVSVEVASAGGSAGGSAGGS [r10_675_JUSTAS] | < -1
SAGGSAGGSARDALKNIKHVEIEHNPPNNRGTIRIQPPNGKQIKFEFDSPNELLKKAGIEPSAGGSAGGSAG [r3_36_TrROS] | < -1
SAGGSAGGPPVVTKTDPNTGAVYTKVGDTWTSTPVPPPVVVRPVPLYDPDGRPLATGYTVLRLESAGGSAGG [r6_313_JUSTAS] | < -1
SAGGSAGGSAGDKPIKIFWNPEFPGRVYIKTPDKERPVPLNDLEELGIDEVVPMEEAMEQSAGGSAGGSAGG [r17_88_TrROS] | < -1
SAGGSAGGSAGKTIMIRDPEALKKLPENQKIRIPDGKPFKIKKVEYVEENGWHRFTIKPESAGGSAGGSAGG [r11_316_TrROS] | < -1
SAGGSAGGSAGPPVPKLFKVKEVTYHPGPKTVTVKTENGETITVPPGVAENVPPGGYLAASAGGSAGGSAGG [r11_124_TrMRF] | < -1
SAGGSAGGSAGPKEPIYYRLRIEPPNGETREFEFPVGASVEDIAKEFNIPPGGRVELEPVSAGGSAGGSAGG [r11_340_TrROS] | < -1
SAGGSAGGSAGGSGSMEPQVVLRVTDTRGGNPTVTIYSPDVPLPPSPTTTVEPRPVSLESAGGSAGGSAGGS [r4_107_JUSTAS] | < -1
SAGGSWIEKLPPDYTILLEKPDGTPFTRKIPANASEEEVLALNPPGSSKIELVSLDPSGRAVWRTPGSAGGS [r16_103_JUSTAS] | < -1
SAPPLPPDAVVETESEPVGVDPTENGTLTYYRRTVRVTLPDGSLTLESLVFRDPATGSSTSSVLRETALSAG [r14_293_JUSTAS] | < -1
SAGGSAGGSAGGGVRIKVEYPNNGQPHEFPIDENWTAESIKDKLEDRGLPPNHKITKIEPSAGGSAGGSAGG [r7_70_TrROS] | < -1
SAGGSAGGSAGGGKVYVFRAPDALVLVPVEENPDTDEFTVTVDPGGDDPDIAKKLAEALSAGGSAGGSAGGS [r10_582_TrMRF] | < -1

Sequence | folding stability dG unfold [kcal/mol]
SAGGSAGGSAPMRMIPFRLPAPPGETIEIKFPNGKKHNISVEPHPDGWFHIMVNGGMIWIPASAGGSAGGSA [r18_372_TrROS] | < -1
SAGGSAGGSAGGSMYRIEIKMPNNPRTIWVPPDELPDDDLEEIAKENFPNIDKIKVWRWSAGGSAGGSAGGS [r4_235_TrROS] | < -1
SAGGSAGGSTVPQSLPDSTATISSGPGGTWTVTFYPDEGSRTLTLPRSVVDASPVPLTELVSSSAGGSAGGS [r20_90_JUSTAS] | < -1
SAGGSAGGSAGGGPMVTRTIPRGVVVTKAELKDDKPVKYTVVKEEPVPVTVRALPEELLSAGGSAGGSAGGS [r10_492_JUSTAS] | < -1
SAGGSAGGSAGMNKKVVATFTDPNSDTTTTLVGPEEAFKSQFPPETASYSLTTVPEEALLSAGGSAGGSAGG [r11_334_JUSTAS] | < -1
SAGGSGMAEAEALAAELAAATEKTPLGRTATVSVDTEVRPETGLTLLTVTTTGPGAPTTTPTTLPGRSAGGS [r16_812_JUSTAS] | < -1
SAGLYLVKNKETKEIVTVPAENLSDEQLKAGFEVVKLPPVKINITVESAEEAEALAKLFPDKVEVTVNESAG [r14_638_TrROS_Hall] | < -1
SAGGSAGGSAGGPKIEIPMVHLHPNGTITVMRMKMEYDPNGKFEIKKMEMHTVPADDIKDSAGGSAGGSAGG [r7_521_TrROS] | < -1
SAGGSGMNITVEPVLSPDGTLTVTTTDPATGKTVSTTTTPVPRGPLPPPVRPLLGLDDRNGRPLLLSAGGSA [r2_78_JUSTAS] | < -1
SAGGSAGGSAGGMTVKEIAEKLGLPPGLKVEDIPLDPPNGYFEIEITHDDGPHTYRIPISAGGSAGGSAGGS [r10_17_TrROS] | < -1
SAGGSAGGSAGSPSEVKYSEEVLEEPLPGGVPYRLVVRTRTVLEGDKVVEEEEETELVLLSAGGSAGGSAGG [r11_35_JUSTAS] | < -1
SAGGSAGGSAGGLTEEEILKKLGLSPDVELLEMPREPERGVYYVKVKKGEGPEEFVVEESAGGSAGGSAGGS [r10_17_JUSTAS] | < -1
SAGGSAGGNTITLPLPDGRKLTIDMHPNPDGNMYVNIDVQTPGKEKEITVPMDNPAIREAVKELSAGGSAGG [r6_607_TrROS] | < -1
SAGGSAGGSAGGMLPNPKTIKVPLKPGETKEKVKEEAEKKFPPGKITVTVSEDGTATVLVSAGGSAGGSAGG [r7_273_JUSTAS] | < -1
SAGGKPMIHINMEENPNGNPYMRVQVMRMDPKNNGWKPVEEVRFDSPQDMRDEAKELADKEGVYLMISAGGS [r16_512_TrROS] | < -1
SAGGPNFEIEPEWDPDNGIVKETIKVPPGMTPEAINDALEIEFPDGMEVQIKPIKDGTIKVYMRMPKSAGGS [r8_255_TrROS] | < -1
SAGGEGEELIIPSSFPLEKIEELEKAHPDAKAEIVEINLRGPVLLPGGGVRPVPSFLKVRLYRREERSAGGS [r8_172_TrMRF] | < -1
SAGGMKTIKLPPFTEEELEKVIEEAEKNPNSDVKITLPEGKEYYIKPPGKLKELKVEELPPLPESLESAGGS [r16_248_JUSTAS] | < -1
SAGGSAGGSAGGSTPSGTLKEVSEEVEPDGIRITTTTYSLPNPGVFKTVVTVEPEAREESAGGSAGGSAGGS [r4_163_JUSTAS] | < -1
